Drawing on PMC8632722, this text covers Kd for 1 substance.

In the assay the target is His-TF-LqqP (Lysobacter enzymogenes OH11). The assay is described as follows: MST.

With PcoI-His (enzyme), the Kd turned out to be 646 nM.

In general, Kd refers to the free concentration of one partner at which half of the binding sites on the other are occupied at equilibrium, for simple one-to-one binding. A higher Kd goes with weaker binding.
